The source of these data is paper PMC6487263, “Kinetic and structural analysis of human ALDH9A1” (Bioscience Reports, 2019).

Common to all, as to test: purified protein
Common to all, as to type: biochemical, Homo sapiens
Common to all, as to conditions: 1 mM NAD+, 150 mM sodium pyrophosphate pH 7.5, 30 °C

Substrate in series [1]: C[N+](C)(C)CCCC=O
Substrate in series [2]: N=C(N)NCCCC=O
Substrate in series [3]: NCCC=O
Substrate in series [4]: NCCCC=O
Substrate in series [5]: O=CCc1ccc(O)c(O)c1

B1: human ALDH9A1 (HsALDH9A1) (Homo sapiens) (protein)
chain: MSTGTFVVSQPLNYRGGARVEPADASGTEKAFEPATGRVIATFTCSGEKEVNLAVQNAKAAFKIWSQKSGMERCRILLEAARIIREREDEIATMECINNGKSIFEARLDIDISWQCLEYYAGLAASMAGEHIQLPGGSFGYTRREPLGVCVGIGAWNYPFQIASWKSAPALACGNAMVFKPSPFTPVSALLLAEIYSEAGVPPGLFNVVQGGAATGQFLCQHPDVAKVSFTGSVPTGMKIMEMSAKGIKPVTLELGGKSPLIIFSDCDMNNAVKGALMANFLTQGQVCCNGTRVFVQKEILDKFTEEVVKQTQRIKIGDPLLEDTRMGPLINRPHLERVLGFVKVAKEQGAKVLCGGDIYVPEDPKLKDGYYMRPCVLTNCRDDMTCVKEEIFGPVMSILSFDTEAEVLERANDTTFGLAAGVFTRDIQRAHRVVAELQAGTCFINNYNVSPVELPFGGYKKSGFGRENGRVTIEYYSQLKTVCVEMGDVESAF
notes: full-length 494-residue protein, His-tag kept (pCDFDuet, BamHI/XhoI), recombinant from E. coli; silent polymorphism at Ile110 codon
Consider B1, for which the Km in series [1] amounted to 6 ± 1 µM; in series [2], 21 ± 2 µM; in series [3], 56 ± 7 µM; in series [4], 67 ± 7 µM; in series [5] it was 11 ± 1 µM. Also, the Vmax in series [1] was 0.588 µmol/min/mg; in series [2], 0.114 µmol/min/mg; in series [3] it was 0.108 µmol/min/mg; in series [4] it was 0.108 µmol/min/mg; in series [5], 0.03 µmol/min/mg.
